The DeepSol protein solubility set

Assay: soluble on expression in E. coli; label from the status in PepcDB or PDB records

Sequence	soluble on expression in E. coli
MGSDKIHHHHHHMEILMLKTFKAVVDEDGIKGAADKLHTVQSNITSRIKKLEKELDTKLFTIIGRKLQLTPSGQQLCEYADQILQLEYQATSAILRNKGTYELRVGMPETFAAVHMPMALKKLKLNHAEIRTKIHTDTSERLVFSVLNNKVDCAAIGNAPKHENLIIIPIVKEELIMVTPRDSEHDPVLFVRDEGCGYRKHALIWQQKAGRGNDELMVMSSADGVLGCIAAGLGYTIIGKNMVAGSRYEKSLVMTPVSHGPKHVQLSIVYRKDSPLESGILTLAKLLTK	not soluble
MGSDKIHHHHHHMEKDIFVELNFLIMIIDDALPKFDLPVDFVTDDSITGDILNQYGRFPCHIKAGVFVLCTRGTVRATINLSEYTITHNDFVTVLPGSFIQIHEVSSDTRVCFAGFSSEFISRVSYVETYLDFLPMILDNPIMALQEEVAQLYRNAFSLLIRAYSLPNTLDNKEILMSIFTIFFQGVGELYKRCKPTTNEPIKREHELYRQFIQLLMTHYTQEHEVSFYAKKCGVTPAHFSGAIRKASGHSPLAIITGIIIMNAKAQLKSTRLPVKEIAFSLGFNNLSFFNKYFRKHVKMTPQEYREC	not soluble
MGSDKIHHHHHHMEKEIPEMFASNYQDWQPIYNWDTCKAGRKEYGKFLCSFLTSSKDDLVVNLNGSWGTGKTELLRRLYVELAERQHPVVYINAWESDFCDDALSVISSEFLNQLEVAFGHNGDPKWLSKFNNLKQKLGKALKFGSLGATMNGEPNAATLLGATSAAVNELPDLASAAVSDNNIRLIEKISSNHANRVQAMKEVREQISALADTMQMVCEAELPIVVLVDELDRCRPTYAIEMLEVIKHFFEARGCVFLVATDTVALEHSIKAVYGASFESEKYLRRFFDRRIALPPLSITQYLKAKALDFTRYQTDQLRLFPFTAINAQLIKIFALLFENAQMSLRDVEQSLQKCVASLEYLQSLGTRPQIVNVIVLMMGSLSSNYRPNRFRIDLQIKYFPMELV	not soluble
MGSDKIHHHHHHMEKLYLKIGNQDEFDICEKVQGLHFLSDDSTPVTTNQFLEISGADGSQFQYATFGKYQVVANFFLEFKSWEDYKLAKHQINRIFSTKKLIRMRTNVESAIVRYVYPNFPEIKPISDGANSSTFSVNFDNPSGYRYSIDRSDELSKVQYGMYLLDNIYPEYRFTDKSFRVYNPSDIAIDPYLGKHDLKIISKFSGNSLKITNTTNGTSWSYNKSSNGSETVLLDGIVTTVNGNPATVNTDYGHIVLNTGWNDIVVSGTNSNDITFSFPFIYI	not soluble
MGSDKIHHHHHHMEKQYEYVHEKFRHLVIASNQERIEFLDEPRWVGYAVANKIIDNLVSLMNKPKRPRMFNLLVVGDSNNGKTTLIRHFYDLYGIPFVDSQSDGIRPIILAEAPPSANEKELYISLLERFYVPYRPTDSVAKLRYQTIHLFREYKVKMLIIDEFHSLLVGTPRLQRQVMNAIKMLCNELQIPIVGVGTKDAIRVLHTDPQHASRFDVAELPTWKLDKDFQKLLFQFQGILPLKKCSNLQSPELATKIHTISGGNLGNVHRLLTACAIEAITTGTEQITLDIIEHNSWVQPTQGLRKIIG	not soluble
MGSDKIHHHHHHMEKRLDYITDLMALGPTANARTIQRRQTAHRLAIAEAWQVKPGEKILEIGCGQGDLSAVLADQVGSSGHVTGIDIASPDYGAPLTLGQAWNHLLAGPLGDRLTVHFNTNLSDDLGPIADQHFDRVVLAHSLWYFASANALALLFKNMAAVCDHVDVAEWSMQPTALDQIGHLQAAMIQGLLYAIAPSDVANIRTLITPDTLAQIAHDNTWTYTAGTIVEDPTLDDAHWEIATTNALLTELKLSTDLRDRVKPLLEAMSHNGTASLATFTGRITF	not soluble
MGSDKIHHHHHHMELVIRDIRKRFQETEVLRGASYRFYSGKITGVLGRNGAGKTTLFNILYGDLAADNGTICLLKDNHEYPLTDKDIGIVYSENYLPEFLTGYEFVKFYMDLHPSDDLMTIDDYLDFMEIGQTERHRIIKGYSDGMKSKLSLICLMISKPKVILLDEPLTAVDVVSSIAIKRLLLELSEDHIIILSTHIMALAEDLCDIVAVLDKGKLQTLDIDRKHEQFEERLLQVLKGDEYDK	not soluble
MGSDKIHHHHHHMELYRDPSQPIEVRVRDLLSRMTLEEKVAQLGSVWGYELIDERGKFSREKAKELLKNGIGQITRPGGSTNLEPQEAAELVNEIQRFLVEETRLGIPAMIHEECLTGYMGLGGTNFPQAIAMASTWDPDLIEKMTTAVREDMRKIGAHQGLAPVLDVARDPRWGRTEETFGESPYLVARMGVSYVKGLQGEDIKKGVVATVKHFAGYSASEGGKNWAPTNIPEREFKEVFLFPFEAAVKEANVLSVMNSYSEIDGVPCAANRKLLTDILRKDWGFEGIVVSDYFAVKVLEDYHRIARDKSEAARLALEAGIDVELPKTECYQYLKDLVEKGIISEALIDEAVTRVLRLKFMLGLFENPYVEVEKAKIESHRDIALEIARKSIILLKNDGILPLQKNKKVALIGPNAGEVRNLLGDYMYLAHIRALLDNIDDVFGNPQIPRENYERLKKSIEEHMKSIPSVLDAFKEEGIEFEYAKGCEVTGEDRSGFEEAIEIAKKSDVAIVVVGDKSGLTLDCTTGESRDMANLKLPGVQEELVLEVAKTGKPVVLVLITGRPYSLKNVVDKVNAILQVWLPGEAGGRAIVDIIYGKVNPSGKLPISFPRSAGQIPVFHYVKPSGGRSHWHGDYVDESTKPLFPFGHGLSYTKFEYSNLRIEPKEVPPAGEVVIKVDVENIGDRDGDEVVQLYIGREFASVTRPVKELKGFKRVSLKAKEKKTVVFRLHMDVLAYYNRDMKLVVEPGEFKVMVGSSSEDIRLTGSFSVVGEKREVVGMRKFFTEACEE	not soluble
MGSDKIHHHHHHMEMRFFVLGAGSWGTVFAQMLHENGEEVILWARRKEIVDLINVSHTSPYVEESKITVRATNDLEEIKKEDILVIAIPVQYIREHLLRLPVKPSMVLNLSKGIEIKTGKRVSEIVEEILGCPYAVLSGPSHAEEVAKKLPTAVTLAGENSKELQKRISTEYFRVYTCEDVVGVEIAGALKNVIAIAAGILDGFGGWDNAKAALETRGIYEIARFGMFFGADQKTFMGLAGIGDLMVTCNSRYSRNRRFGELIARGFNPLKLLESSNQVVEGAFTVKAVMKIAKENKIDMPISEEVYRVVYEGKPPLQSMRDLMRRSLKDEFWASVVDSSL	not soluble
MGSDKIHHHHHHMENALLVGLSRQVVLERQMDVVANNLANLNTNGFKAERSVFQEFLNTGAHEDNFARPDRRVSFVQDRATYHDLSTGALQETKNPLDVAIDGKGFLVVQTPQGERFTRDGSLTINAQGQLVNGSGFPVLGTGGPIVIQPTDKELSISPDGRVSVVEGTSIIDSLRGKLRVVTFDRPQSLIKQGGNLFAATSDQGTPDTKSMVRQGYVEKSNVNSVLEMTRMIDVTRTYTQISAMLQQESELRKTAIEKLAEVPA	not soluble
MGSDKIHHHHHHMENLIFDIGFHKGEDTLFYLLKGYRVIAVDADPDLINEWQNIFKKYIENGKLLLLNYVISDTNDVDTDFYIGPNTIWSSTKVSISSRMCCKAIKKKIKSKRLDHLFHEYGTPFYCKIDIEGNDIIALQTMEKVSEKPLYISVETECIGEDEDIAGHELDTLNALYQLGYRKFKLVDQRTLTVLDYNCFYKNNSEHNWFEQIETNCKYAEELIVLSDTDQRVKFTDFFPGSSGPFGEELAGKWYDYPQAKEMLKKHREDKMRLNEPAWTFWCDWHATF	not soluble
MGSDKIHHHHHHMENVVPPFKVDVAGTFLLPAALREAREQYRNEQISLLTLRAVEDAEIRNLVDRLKAEGLKVVTDGRFRSDAWPLDFMCGLDGIRFRDDRKTSVELTGRIDVHHHPVLDDFVFLTGVTGGDVIAKQVLPAPSRLLAELMKDANRTELDSVYPDREILLVDLAQTYQKLIMELYRSGCRYLQLDDATRTVTDNAIRVNNMALENLPADLFIAFHSPTEMLFSLQGIHAFFLDYDSECCGKNRLLWFIREKQSVFGFVLSHYPVEEELEELRAKIDQIIRYIPSHRFSLCIPNAEVLPSESYEAAEEKQWHTLKMAEMVAGELWPEEG	not soluble
MGSDKIHHHHHHMESVGDVLKRQPSRFYYQDLVQKIMKDPDVAAFIQQESLTPKELNRSISKFNQYITERDKFLRGDTDYIAKGYKPILVKNHGYADVSYEETPELIAAEKEAAIKNRLKLINLPASLKKASLAQVDLDDLGRLPVFEKLLAFVEQYPAIRKGLYLYGDFGVGKSFMVAALAHDLSEKRGVSSTLLHYPSFVIDVKNAISDGNVKTLVDEIKLSEVLILDDIGAEQSTVWVRDEILQVILQYRMQENLPTFFTSNFNFEDLEKHFAKVKHGNDETWEARRVMERIRYLAEETRLEGVNRR	not soluble
